T1: recombinant canine CD20 expressed in HEK cells (Canis lupus familiaris, UniProt Q3C2E2, A201T/C77Y/G273E/L198V)
T1 construct: expressed in transfected cells; host or cells: HEK cells
T1 sequence (Q3C2E2 1-297 C77Y/L198V/A201T/G273E): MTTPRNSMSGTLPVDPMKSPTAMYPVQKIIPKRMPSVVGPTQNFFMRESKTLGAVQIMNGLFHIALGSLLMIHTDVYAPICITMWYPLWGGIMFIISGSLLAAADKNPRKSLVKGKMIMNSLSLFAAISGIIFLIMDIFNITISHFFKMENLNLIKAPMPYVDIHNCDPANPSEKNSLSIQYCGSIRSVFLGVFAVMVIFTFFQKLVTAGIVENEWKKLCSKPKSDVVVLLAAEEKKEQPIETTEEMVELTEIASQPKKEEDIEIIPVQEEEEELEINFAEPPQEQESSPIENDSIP

T2: recombinant canine CD20 (Canis lupus familiaris, UniProt Q3C2E2, A201T/C77Y/G273E/L198V)
T2 construct: are transfected with an expression vector encoding the full-length canine CD20 protein; expressed in transfected cells; host or cells: CHO cells (CHO-DG44)
T2 sequence (Q3C2E2 1-297 C77Y/L198V/A201T/G273E): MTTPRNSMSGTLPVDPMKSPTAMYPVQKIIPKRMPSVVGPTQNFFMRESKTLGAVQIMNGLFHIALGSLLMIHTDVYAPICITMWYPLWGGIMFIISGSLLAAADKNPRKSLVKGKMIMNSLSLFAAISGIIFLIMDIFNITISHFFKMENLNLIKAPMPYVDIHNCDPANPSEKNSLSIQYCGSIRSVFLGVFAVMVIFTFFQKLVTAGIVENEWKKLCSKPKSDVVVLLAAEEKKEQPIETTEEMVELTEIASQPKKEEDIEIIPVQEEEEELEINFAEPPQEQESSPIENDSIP


Columns and labels:
[1] = molecular target: T1, recombinant canine CD20 expressed in HEK cells; assay: FACS binding to cells expressing recombinant canine CD20
Protocol: (§1) The binding of the antibody variants of the present invention raised to canine CD20 can be assessed by FACS analysis for their binding to feline CD20 according to standard immunological techniques (see Veterinary Immunology and Immunopathology 2005, 106:179-196; Brousseau et al., Manual of Immunology Methods, CRC Press, 1998). In the present example, the antibody variants (2.5 μg/mL) are incubated with mammalian cells expressing the recombinant feline CD20 or canine CD20 or control cells. The amount of bound antibody is assessed by detection with a fluorescent-labeled reporter antibody reagent. Several controls are utilized to determine the background fluorescence: (i) CD20 expressing cells are incubated with the conjugated secondary antibody with an isotype antibody, and (ii) Control cells are incubated with the anti-CD20 antibodies.

[2] = system: feline CD20 expressed in mammalian cells; assay: FACS binding to cells expressing recombinant feline CD20; conditions: antibody 2.5 μg/mL
Protocol: as §1

[3] = system: Control Cells; assay: FACS binding to control cells; conditions: antibody 2.5 μg/mL
Protocol: In the present example, the antibody variants (2.5 μg/mL) are incubated with mammalian cells expressing the recombinant feline CD20 or canine CD20 or control cells. The amount of bound antibody is assessed by detection with a fluorescent-labeled reporter antibody reagent. Several controls are utilized to determine the background fluorescence: (i) CD20 expressing cells are incubated with the conjugated secondary antibody with an isotype antibody, and (ii) Control cells are incubated with the anti-CD20 antibodies.

[4] = molecular target: T2, recombinant canine CD20; assay: Competition experiments (epitope mapping) on CHO cells expressing recombinant canine CD20; type: binding
Protocol: Competition experiments are performed using standard techniques. Briefly, biotinylated recombinant anti-canine CD20 antibodies are titrated on CHO cells expressing recombinant canine CD20. Cells are first incubated with an excess of unlabelled recombinant anti-canine CD20 antibody (25 μg/mL). Thereafter, cells are incubated with a biotin-labeled antibody at 2 μg/mL. After washing, cells are incubated with streptavidin- phycoerythrin and fluorescence is analyzed by flow cytometry. An irrelevant antibody is used as negative control for inhibition. Results are expressed as a ratio between fluorescence intensity of the cells pre-incubated with the unlabelled antibody and the fluorescence intensity obtained for each biotinylated antibody alone. The percentage of inhibition (PI) is calculated by the following formula: PI=[1−(Experimental-Background)/Biotinylated antibody alone−Background)]×100%.

[5] = system: lymphoma cells; assay: MTT proliferation assay on lymphoma cells; type: cell-based; conditions: 72 h; for percentage of reduction of cell proliferation, Doxorubicin 6.6 nM: Mab 10 ug/mL plus Doxorubicin 6.6 nM; for percentage of reduction of cell proliferation, Doxorubicin 66 nM: Mab 10 ug/mL plus Doxorubicin 66 nM; for percentage of reduction of cell proliferation, Doxorubicin 0 nM: Mab 10 ug/mL, triplicate
Protocol: Lymphoma cells are grown in RPMI medium with FBS 10% in 5% carbon dioxide (CO2) at 37° C. Cells are seeded at 5,000 cells/well in 96-well plates in medium with 5% FBS. Cells are treated with the antibody variants or isotype controls (10 μg/ml) and incubated for 72 h at 37° C. in a CO2 incubator. Ten (10) μL, MTT solution is added to each well and incubated at 37° C. for 4 h according to the manufacturer's instruction (Trevigen). Optical density (OD) is then measured at 490 nm and data is presented as percentage of reduction of cell proliferation of triplicate measurements. The data in Table 5 illustrate that the antibody variants have an anti-proliferative effect on lymphoma cells. Furthermore, the antibody variants sensitize the lymphoma cell line to Doxorubicin, a cytotoxic drug commonly used in the treatment of cancer for companion animals.
The antibody variants of the present invention are further tested for their ability to alter proliferation of lymphoma cells. Cell assays are conducted as described in the example above. Data is presented in Table 6 as percentage of reduction of cell proliferation of triplicate measurements.

Sequence of feline CD20 expressed in mammalian cells (as listed by the source): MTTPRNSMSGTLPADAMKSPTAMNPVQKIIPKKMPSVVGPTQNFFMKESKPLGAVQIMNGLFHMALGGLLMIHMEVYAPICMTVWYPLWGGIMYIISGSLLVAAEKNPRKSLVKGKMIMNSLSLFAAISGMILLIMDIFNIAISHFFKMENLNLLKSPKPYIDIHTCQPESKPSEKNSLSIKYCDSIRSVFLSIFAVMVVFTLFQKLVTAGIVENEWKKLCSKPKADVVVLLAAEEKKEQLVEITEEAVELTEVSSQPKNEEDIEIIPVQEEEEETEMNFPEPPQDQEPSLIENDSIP

binding to recombinant canine CD20 (in words) [1]	mean fluorescence, Canine CD20 ([1]; antibody 2.5 μg/mL) [mean fluorescence units]	epitope of canine CD20 (in words) ([4]; conclusion from Table 7)	percentage of inhibition (PI), labeled antibody CD20-1 ([4]; unlabelled competitor 25 μg/mL, biotin-labeled CD20-1 2 μg/mL) [%]	percentage of inhibition (PI), labeled antibody CD20-2 ([4]; unlabelled competitor 25 μg/mL, biotin-labeled CD20-2 2 μg/mL) [%]	percentage of inhibition (PI), labeled antibody CD20-5 ([4]; unlabelled competitor 25 μg/mL, biotin-labeled CD20-5 2 μg/mL) [%]	Molecule	mean fluorescence, Feline CD20 [2] [mean fluorescence units]	mean fluorescence, Control Cells [3] [mean fluorescence units]	percentage of reduction of cell proliferation, Doxorubicin 6.6 nM [5] [%]	percentage of reduction of cell proliferation, Doxorubicin 66 nM [5] [%]	percentage of reduction of cell proliferation, Doxorubicin 0 nM [5] [%]
effective binding	2107	recognize different epitopes	6.03	1.41	5.99	CD20-6: anti-canine CD20 antibody; full length HC SEQ ID NO. 42, LC SEQ ID NO. 43 (antibody, canis familiaris/mus musculus, anti-canine CD20 antibody; 43) heavy: EIQLQQSGAELVRPGASVTLSCKASGYTFTDYEMHWVKQTPVHGLEWIGGIDPETGGTAYNQKFKGKAILTADKSSSTVYMELRSLTSEDSAVYYCTRDYGTSGYWGQGTLVTVSSASTTAPSVFPLAPSCGSQSGSTVALACLVSGYFPEPVTVSWNSGSLTSGVHTFPSVLQSSGLYSLSSMVTVPSSRWPSETFTCNVAHPASKTKVDKPVPKRENGRVPRPPDCPKCPAPEMLGGPSVFIFPPKPKDTLLIARTPEVTCVVVDLDPEDPEVQISWFVDGKQMQTAKTQPREEQFNGTYRVVSVLPIGHQDWLKGKQFTCKVNNKALPSPIERTISKARGQAHQPSVYVLPPSREELSKNTVSLTCLIKDFFPPDIDVEWQSNGQQEPESKYRTTPPQLDEDGSYFLYSKLSVDKSRWQRGDTFICAVMHEALHNHYTQKSLSHSPGK light: DVVVTQTPLSLPVSFGDQVSISCRSSQSLANSYGNTYLSWYLHKPGQSPQLLIYGISNRFSGVPDRFSGSGSGTDFTLKISRVEAEDLGVYFCSQSTHVPWTFGGGTHLTVLGQPKASPSVTLFPPSSEELGANKATLVCLISDFYPSGVTVAWKADGSPITQGVETTKPSKQSNNKYAASSYLSLTPDKWKSHSSFSCLVTHEGSTVEKKVAPAECS	60	4	–	–	–
–	–	–	–	–	–	VET 135 X VET 260: antibody variant: light chain VET135 (CD20-2 LC + VET101) with heavy chain VET260 (VET259 CD20-2 HC FR4T + VET201) (antibody) heavy: QVQLQQSRAELVRPGASVTLSCKPSGYTFTDYEVHWVKQTPVHGLEWIGAIDPETGGTADNQKFKGKAILTADKSSSTAYMELRSLTSEDSAVYYCTNFVDVWGTGTTVTVSSASTTAPSVFPLAPSCGSQSGSTVALACLVSGYFPEPVTVSWNSGSLTSGVHTFPSVLQSSGLYSLSSMVTVPSSRWPSETFTCNVAHPASKTKVDKPVPKRENGRVPRPPDCPKCPAPEMLGGPSVFIFPPKPKDTLLIARTPEVTCVVVDLDPEDPEVQISWFVDGKQMQTAKTQPREEQFNGTYRVVSVLPIGHQDWLKGKQFTCKVNNKALPSPIERTISKARGQAHQPSVYVLPPSREELSKNTVSLTCLIKDFFPPDIDVEWQSNGQQEPESKYRTTPPQLDEDGSYFLYSKLSVDKSRWQRGDTFICAVMHEALHNHYTQKSLSHSPGK light: DVVMSQSPSSLAVSVGEKVTMSCKSSQSLLYSGNQKNYLAWYQQKPGQSPRLLIYWASTRESGVPDRFTGSGSGTDFTLTISSVKAEDLAVFYCQQYYNYPLTFGAGTKLELKGQPKASPSVTLFPPSSEELGANKATLVCLISDFYPSGVTVAWKADGSPITQGVETTKPSKQSNNKYAASSYLSLTPDKWKSHSSFSCLVTHEGSTVEKKVAPAECS	–	–	58.63	64.88	40.48
–	–	–	–	–	–	VET 133 X VET 257: antibody variant: light chain VET133 (VET132 CD20-1 LC + VET101) with heavy chain VET257 (VET256 CD20-1 HC + VET201) (antibody) heavy: EIQLQQSGAELVKPGASVKISCKASGYTFTDYYINWVKQRPGQGLEWIGKIGPGSGRTYYNEKFKGKATLTADKSSSTAYIQISSLTSEDSAVYFCAVLSWGQGTTLTVSSASTTAPSVFPLAPSCGSQSGSTVALACLVSGYFPEPVTVSWNSGSLTSGVHTFPSVLQSSGLYSLSSMVTVPSSRWPSETFTCNVAHPASKTKVDKPVPKRENGRVPRPPDCPKCPAPEMLGGPSVFIFPPKPKDTLLIARTPEVTCVVVDLDPEDPEVQISWFVDGKQMQTAKTQPREEQFNGTYRVVSVLPIGHQDWLKGKQFTCKVNNKALPSPIERTISKARGQAHQPSVYVLPPSREELSKNTVSLTCLIKDFFPPDIDVEWQSNGQQEPESKYRTTPPQLDEDGSYFLYSKLSVDKSRWQRGDTFICAVMHEALHNHYTQKSLSHSPGK light: DVQITQTPLTLSVTFGQPASISCKSSQSLLKSDGRTYLNWLLQRPGQSPKRLLYLVSKLDSGVPDRFTGSGSGTDFTLKISRVEAEDLGVYYCWQGTHFPQTFGGGTKLEIKGQPKASPSVTLFPPSSEELGANKATLVCLISDFYPSGVTVAWKADGSPITQGVETTKPSKQSNNKYAASSYLSLTPDKWKSHSSFSCLVTHEGSTVEKKVAPAECS	–	–	65.77	76.79	59.82
